{
  "source": "paper PMC9812370",
  "about": "(Cell Reports, 2023)",
  "target": "SARS-CoV-2 wild-type (D614G) HexaPro S protein ectodomain (SARS-CoV-2 Wuhan-Hu-1 with D614G …, D614G)",
  "assay": "ELISA",
  "data": [
    {"binder": "Fab 4A8 (Fab, V domains shown) VH: EVQLVESGAEVKKPGASVKVSCKVSGYTLTELSMHWVRQAPGKGLEWMGGFDPEDGETMYAQKFQGRVTMTEDTSTDTAYMELSSLRSEDTAVYYCATSTAVAGTPDLFDYYYGMDVWGQGTTVTVSS VL: EIVMTQSPLSSPVTLGQPASISCRSSQSLVHSDGNTYLSWLQQRPGQPPRLLIYKISNRFSGVPDRFSGSGAGTDFTLKISRVEAEDVGVYYCTQATQFPYTFGQGTKVDIK", "values": [
      {"measurement": "binding result", "result": "binds"}
    ]}
  ]
}
